“Also recorded” adds a separate entry of the source.
Columns and labels:
MDA-MB-231 = assay: 3D soft agar colony formation assay, MDA-MB-231; assay type: cell-based, human
Protocol: Anchorage-independent growth is the ability of transformed cells to grow independently of a solid surface, and is a hallmark of carcinogenesis. The soft agar colony formation assay is a well-established method for characterizing this capability in vitro (J Vis Exp. 2014; (92): 51998). Human triple negative breast cancer (TNBC) cell lines MDA-MB-231 (HTB-26™) and BT549 (HTB122™) were obtained from ATCC and employed in this assay.
MDA-MB-231 was cultured in 1×RPMI media containing 10% FBS and 1% P/S. BT549 was cultured in 1×RPMI media containing 10% FBS, 0.023 U/mL insulin and 1% P/S. Cells were recovered and expanded from frozen stocks for 2-3 passages. The NRP2-high population was sorted out on FACS equipment following cell surface staining by a fluorophore-conjugated anti-NRP2 antibody. […] The chemo drug Cisplatin or 5-FU was added at a final concentration of IC30 or 1/2 IC30, based on a preliminary test that determined their inhibition curves on MDA-MB-231 cells, in combination with the antibodies a-NRP2-10v10 or its isotype control hIgG4 at 100 nM. […] After 6 or 9 days of treatment, the soft agar matrix was dissolved and the formed cell colonies were quantified using CyQuant dye diluted in PBS (provided in the Cell Biolab kit), which produced a fluorescence signal proportional to viable cells.

MDA-MB-231 cells = assay: 3D methylcellulose colony formation assay, MDA-MB-231; assay type: cell-based, human; conditions: antibody 100 nM in combination with Cisplatin (2 doses) or Bevacizumab (100 nM), compared to hIgG4
Source text: Other experimental details are essentially the same as described in the previous example.

A549 cells = assay: A549 NSCLC xenograft in Nu/J mice, combination with 5-FU; assay type: in vivo; conditions: for tumor growth in combination with 5-FU: 12.5 mg/kg IP BIW plus 5-FU 2.5 mg/kg TIW from day 16, significant on day 51 vs control IgG/5-FU
Protocol: This study aimed to investigate the in vivo anticancer potential of aNRP2-10v10 in combination with fluorouracil (5-FU) in a human xenograft mouse model using A549 cells (NSCLC cancer model).
Treatment Regimen. Twenty (20) Nu/J mice (Jackson Laboratory, female, 6-8 wks old) were used in this study. […] The dosing regimen is shown in Table E7 below; In brief animals received injections of 12.5 mg/kg of aNRP2-10 or IgG control, which were administered to mice intraperitoneally twice a week according to the protocol below (Table E7). Both groups also received 2.5 mg/kg of 5-FU three times a week.
Human A549 cell line was purchased from ATCC.

[1] = system: neo-lymphangiogenesis of the cornea; assay: Corneal alkali-burn injury model of neovascularization (LYVE-1 staining); assay type: in vivo, mouse; conditions: IP on Day 0, 3, 7 and 10; Day 14; compared to IgG control; p=0.07
Protocol: Study Design & Treatment Regimen. The study consisted of 40 female C57BL/6 mice separated into four groups. Prior to study, animals were randomized into four groups, 10 mice per group. On Day 0, neovascularization (NV) of the cornea was induced from alkali-burn injury in the eyes of animals under anesthesia. Animals were treated intraperitoneally with control IgG (Group 1), aNRP2-28 (Group 2) and Bevacizumab (Group 3) on post-injury Day 0, 3, 7 and 10. During the in-life phase, animals were monitored with daily clinical observations and weekly body weights. Additionally, ocular assessments of injured eyes were scored and photos taken on post-injury Day 7 and Day 14. All animals were euthanized on Day 14. Injured eyes from all animals were removed and dissected. Whole-mounted corneas were fixed, stained with LYVE-1, and analyzed immunohistochemically to examine the efficacy of Test Articles.

mouse NRP2 [2] = assay: Epitope mapping: FACS staining of Expi293 cells expressing mouse NRP2 and b1 domain mutants; assay type: binding; conditions: MFI staining, antibody 10 nM, mutations made in isolation
Protocol: (§1) Human NRP2a (version 2; see Table N1) and mouse NRP2v2 cDNAs were obtained from Origene. […] Human and mouse NRP2, expression vectors, along with expression vectors encoding all 6 mutants were transfected into Expi293 cells at 1 million cells/mL, by standard techniques. Approximately 40 hours post transfection cells were co-stained with aNRP2-10v10, and a species agnostic anti-NRP2 a1 specific binding antibody.

mouse NRP2 [3] = biological target: T1, mouse NRP2 (Mus musculus, UniProt O35375); assay: as above; assay type: binding
T1 construct: host or cells: Expi293, transient transfection
T1 sequence (O35375 21-926 isoform O35375-4): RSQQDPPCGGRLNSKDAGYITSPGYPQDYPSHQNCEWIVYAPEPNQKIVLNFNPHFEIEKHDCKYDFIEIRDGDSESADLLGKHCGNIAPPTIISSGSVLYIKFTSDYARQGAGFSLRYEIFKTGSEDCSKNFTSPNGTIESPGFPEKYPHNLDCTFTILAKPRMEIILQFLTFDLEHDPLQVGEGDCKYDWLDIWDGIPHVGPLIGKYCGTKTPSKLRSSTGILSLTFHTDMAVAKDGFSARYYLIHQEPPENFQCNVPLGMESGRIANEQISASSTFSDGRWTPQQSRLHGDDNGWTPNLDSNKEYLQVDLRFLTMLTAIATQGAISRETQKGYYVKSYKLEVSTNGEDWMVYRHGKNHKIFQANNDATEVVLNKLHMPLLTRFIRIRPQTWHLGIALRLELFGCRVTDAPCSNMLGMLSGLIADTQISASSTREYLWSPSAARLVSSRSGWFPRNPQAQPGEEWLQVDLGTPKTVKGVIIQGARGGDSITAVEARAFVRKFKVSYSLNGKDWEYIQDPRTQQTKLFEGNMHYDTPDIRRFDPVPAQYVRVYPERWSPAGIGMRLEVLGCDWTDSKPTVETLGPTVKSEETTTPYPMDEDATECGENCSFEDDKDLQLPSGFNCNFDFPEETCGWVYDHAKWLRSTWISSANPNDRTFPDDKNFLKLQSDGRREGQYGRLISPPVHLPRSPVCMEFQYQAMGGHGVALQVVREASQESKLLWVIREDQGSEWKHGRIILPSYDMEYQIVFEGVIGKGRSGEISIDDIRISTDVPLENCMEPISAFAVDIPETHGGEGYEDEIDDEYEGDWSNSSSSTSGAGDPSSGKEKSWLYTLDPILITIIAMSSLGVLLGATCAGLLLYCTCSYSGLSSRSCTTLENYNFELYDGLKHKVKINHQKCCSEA
Protocol: as §1

B1: aNRP2-10v10: humanized, affinity matured anti-NRP2 antibody, target domain b1, VEGF-C blocking; VH SEQ ID NO: 49, VL SEQ ID NO: 50 (antibody, V domains shown)
VH: EVQLVQSGAEVKKPGATVKISCKVSGFNIKDYYVHWVQQAPGKGLEWMGRIDVEDDETKYAPKFQGRVTITADTSTDTAYMELSSLRSEDTAVYYCATPIYGAREAWFAYWGQGTLVTVSS
VL: DIQMTQSPSSLSASVGDRVTITCTASSSVSSSYLHWYQQKPGKAPKLLIYRTSNLASGVPSRFSGSGSGTDFTLTISSLQPEDFATYYCHQYYRSPPTFGGGTKVEIK
modifications: Variable heavy chain region; Light chain variable region
Which results are given for B1?
colony formation, soft agar, antibody treatment alone (MDA-MB-231) (MDA-MB-231; aNRP2-10v10 treatment alone): no obvious effect; colony formation by MDA-MB-231 cells, soft agar (MDA-MB-231; antibody 100 nM in combination with Cisplatin or 5-FU (IC30 or 1/2 IC30), compared to hIgG4 control, NRP2-high sorted cells): significantly more pronounced; also recorded: significant inhibition of colony formation; colony formation by MDA-MB-231 cells, methylcellulose (MDA-MB-231 cells): inhibitory effect; also recorded: significantly enhanced inhibition of colony formation; tumor growth in combination with 5-FU (A549 cells): enhances activity of the chemotherapeutic drug 5-FU; tumor growth in combination with 5-FU (A549 cells; listed as aNRP2-10): performed better than 5-FU with control IgG; toxicity by clinical observations and body weights (A549 cells; combination with 5-FU): No obvious increased toxicity; neo-lymphangiogenesis, % Lyve-1+ area of cornea [1]: clear trend towards reduced sprouting of lymphatic vessels; binding activity to mouse NRP2 with mutations F299Y, K354N, and L416S (mouse NRP2 [2]): restored partial, but incomplete, binding activity; binding to mouse NRP2 with mutations 1383V, M400A, and 1407V (mouse NRP2 [2]): no improvement in binding; binding to mouse NRP2 (wild type) (mouse NRP2 [3]): binds specifically to the b1 domain of human NRP2, but not mouse NRP2; also recorded: does not cross react with mouse NRP2

Source: US12410253B2, “Compositions comprising anti-NRP2 antibodies” (aTyr Pharma, Inc., priority 2019, dated 2025)
